Results published in paper PMC5385928 (Nature structural & molecular biology, 2016).

B1: HIV-1 (NL4-3 clone) Vpr with H78C mutation (natural protein, UniProt P12520 1-96, looked up)
chain: MEQAPEDQGPQREPYNEWTLELLEELKSEAVRHFPRIWLHNLGQHIYETYGDTWAGVEAIIRILQQLLFIHFRIGCRCSRIGVTRQRRARNGASRS
B2: DDB1- and CUL4A-associated factor 1 (DCAF1), C-terminal region including the WD40 domain (residues 1046-1396) (domain or fragment)
chain: not shown

How the values were obtained:
[1] = molecular target: Uracil-DNA glycosylase UNG2, catalytic domain (residues 83-304) (human, UniProt P13051-2 83-304); experiment: crystal structure
Sequence of Uracil-DNA glycosylase UNG2, catalytic domain (residues 83-304) (P13051 92-313): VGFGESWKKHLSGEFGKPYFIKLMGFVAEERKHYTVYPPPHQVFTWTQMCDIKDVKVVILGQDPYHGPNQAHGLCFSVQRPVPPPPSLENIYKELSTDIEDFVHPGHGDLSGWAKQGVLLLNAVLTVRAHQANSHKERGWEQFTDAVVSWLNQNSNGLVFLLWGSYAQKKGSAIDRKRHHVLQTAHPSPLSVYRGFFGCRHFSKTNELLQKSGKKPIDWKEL

[2] = molecular target: DNA damage-binding protein 1 (DDB1), full length human (human, UniProt Q16531 1-1140); experiment: crystal structure
Sequence of DNA damage-binding protein 1 (DDB1), full length human (Q16531 whole entry): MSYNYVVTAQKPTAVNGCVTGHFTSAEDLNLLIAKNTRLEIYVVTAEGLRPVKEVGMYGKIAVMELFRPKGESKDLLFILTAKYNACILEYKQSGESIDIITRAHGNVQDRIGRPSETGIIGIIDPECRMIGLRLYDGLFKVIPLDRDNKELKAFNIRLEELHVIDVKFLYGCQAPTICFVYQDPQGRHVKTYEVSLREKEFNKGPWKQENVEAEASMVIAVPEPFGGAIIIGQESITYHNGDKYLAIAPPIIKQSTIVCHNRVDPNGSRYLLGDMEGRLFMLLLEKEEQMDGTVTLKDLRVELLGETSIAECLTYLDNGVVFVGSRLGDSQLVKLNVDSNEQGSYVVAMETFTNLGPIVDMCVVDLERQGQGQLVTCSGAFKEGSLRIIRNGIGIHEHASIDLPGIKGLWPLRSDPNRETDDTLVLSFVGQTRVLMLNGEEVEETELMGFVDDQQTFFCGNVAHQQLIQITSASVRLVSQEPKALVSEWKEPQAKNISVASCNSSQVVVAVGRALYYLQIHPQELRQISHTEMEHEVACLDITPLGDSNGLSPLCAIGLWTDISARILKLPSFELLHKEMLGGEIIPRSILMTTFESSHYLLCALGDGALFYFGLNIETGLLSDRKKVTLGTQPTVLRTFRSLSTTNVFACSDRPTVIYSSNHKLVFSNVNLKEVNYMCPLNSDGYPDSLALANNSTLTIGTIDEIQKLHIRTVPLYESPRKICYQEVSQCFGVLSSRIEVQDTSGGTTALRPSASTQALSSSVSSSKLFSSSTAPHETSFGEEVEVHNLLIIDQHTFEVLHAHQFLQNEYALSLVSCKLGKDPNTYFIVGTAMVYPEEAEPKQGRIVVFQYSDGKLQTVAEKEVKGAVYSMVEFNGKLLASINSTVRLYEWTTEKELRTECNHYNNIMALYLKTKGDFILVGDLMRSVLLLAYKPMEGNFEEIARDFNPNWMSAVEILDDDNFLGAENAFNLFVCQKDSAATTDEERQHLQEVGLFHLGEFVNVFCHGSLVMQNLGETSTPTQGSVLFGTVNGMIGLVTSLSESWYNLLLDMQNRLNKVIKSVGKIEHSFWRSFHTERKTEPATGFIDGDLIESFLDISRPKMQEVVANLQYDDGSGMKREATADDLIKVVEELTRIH

Binder	binding result [1]	binding result [2]
B1	binds	
B2		binds
